According to patent US20170002075A1 (AbbVie / Abbott, published 2017):
Values belong to the binder of their own block, whether it stands above or below them.

How the values were obtained:
[1] = molecular target: T1, recombinant human RAGE (plate coat of the competition ELISA of Example 1.4); assay: competition ELISA on plates coated with recombinant human RAGE (2 µg/mL); competitor: biotinylated hybridoma-derived 4E5 (4E5-biotin), streptavidin-HRP, OD 450 nm; the unit comes from the axis 'Log MAbs (M)'
T1 construct: not shown: The carrier of the coated preparation, if it had one
Method: The purified chimeric anti-human RAGE monoclonal antibodies were tested for their ability to bind human RAGE in a competition ELISA. […] Equal volumes (50 μL) of each recombinant chimeric anti-human RAGE monoclonal antibodies or hybridoma-derived anti-human RAGE monoclonal antibodies and each corresponding biotinylated hybridoma-derived anti-RAGE mAbs were mixed. 50 μL of this mixture was then added to ELISA plates pre-coated with recombinant human RAGE at 2 μg/mL and incubated for 1.5 hours at room temperature. Wells were washed three times with PBS+0.05% Tween-20. Streptavidin HRP (1 mg/mL) was diluted 1:16000 in PBST+10% Superblock; 50 µL/well was added and the plates incubated for 1 hour at room temperature. Plates were washed 3 times with PBS+0.05% Tween-20. 50 µL of TMB solution (Sigma, St Louis, Mo.) was added to each well and incubated for 10 minutes at room temperature. The reaction was stopped by addition of IN sulphuric acid. Plates were read spectrophotometrically at a wavelength of 450 nm.

[2] = molecular target: T2, biotinylated Aβ1-42 globulomer (UniProt P05067 672-713, 1/5 of the Aβ1-42 peptide used was Biotinyl-Amyloid β-Protein (1-42)); assay: ALPHA screen: RAGE-Fc titrated on protein A acceptor beads, biotinylated Aβ globulomer on streptavidin donor beads
T2 construct: domain: Amyloid β-Protein (1-42); Oligomer of Aβ1-42; Concentrations are calculated as Aβ1-42 monomer; also called Aβ-globulomer; amyloid Aβ-globulomers

EC50 [1]: 66.2 nM
B1: 4E5-recombinant (antibody, V domains shown)
VH: QVQLQQSGAELVRPGTSVKVSCKASGYAFNNYLIEWIKQRPGQGLEWIGVINPGSGGTNHNEKFKVKATLTADKSSSTAYIQLSSLTSDDSAVYFCARSAGTARARFAYWGQGTLVTVSA
VL: DIQMTQSPSSLSASLGERVSLTCRASQDIGSSLNWLQQEPDGTIKRLIYATSSLDSGVPKRFSGSRSGSDYSLTISSLESEDFVDYYCLQYASFPFTFGSGTKLEIKR
notes: also called recombinant chimeric anti-human RAGE monoclonal antibody 4E5 (human IgG1/kappa)

binding result [2]: no binding (tested: about 30 ng/µl)
B2: C-terminal shortened husRAGE fusion protein (1-130-sRAGE-Fc) (Fc fusion)
chain: AQNITARIGEPLVLKCKGAPKKPPQRLEWKLNTGRTEAWKVLSPQGGGPWDSVARVLPNGSLFLPAVGIQDEGIFRCQAMNRNGKETKSNYRVRVYQIPGKPEIVDSA
notes: also called husRAGE-1-130-Fc; RAGE-Fc mutant protein consisting of the v-domain only; not shown: C-terminal part of a human IgG heavy chain ('hIgG lambda hc 257-Stop')
